# Laboratory results from the supplement of paper PMC10201428.
# ± gives the standard deviation of the averaged measurements.
# What was measured:
# [1] = system: VchCAST RNA-guided transposition machinery (E. coli BL21(DE3) host, lacZ target); assay: relative integration efficiency (T-RL orientation) vs wild-type transposon end (log2 (normalized fold change)); transposon end mutated: right end (5 bp flank + 75 bp right end); higher = more efficient transposition
# How it was run: (§1)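 Barcoded pools of 1549 left-end or 1849 right-end transposon variants were cloned into a pUC57 mini-transposon donor. Each pool was co-transformed with a T7-driven effector plasmid (CRISPR array, tniQ-cas8-cas7-cas6, tnsA-tnsB-tnsC) into E. coli BL21(DE3) and plated with 0.1 mM IPTG at 37°C for 18 h. Input plasmids and genomic integration junctions were PCR-amplified and Illumina-sequenced, with two biological output replicates and four wild-type barcodes as reference. Relative integration efficiency is output/input barcode abundance fold change, normalised to wild-type barcodes and log-transformed.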
# [2] = system: VchCAST RNA-guided transposition machinery (E. coli BL21(DE3) host, lacZ target); assay: relative integration efficiency (T-LR orientation) vs wild-type transposon end (log2 (normalized fold change)); transposon end mutated: right end (5 bp flank + 75 bp right end); higher = more efficient transposition
# How it was run: as §1
Sequence,relative integration efficiency (log2) [1],relative integration efficiency (log2) [2]
ACATTTGTTGATACAACCATAAAATGATAATTACACCCATAAATTGATAATTATCACACCCATAAATTGATATTGCGAGAGATCATAGTCAGACCAACATTGCTACGACCCGTATTCGCACCGACAC,-0.286 ± 0.11,-0.165 ± 0.12
ACATTTGTTGATACAACCATAAAATGATAATTACACCCATCCCGTGATAATTATCACACCCATAAATTGATATTGCCTCTGATCATAGTCAGACCAACATTGCTACGACCCGTATTCGCACCGACAC,-1.77 ± 0.12,-1.98 ± 0.74
ACATTTGTTGATACAACCATAAAATGATAATTACACCCATAAATTGATAATTATCACACCCATAAATTGATATTGCCTCTGACTTAAACAAAATATATCTTGCCCGCCTTACAAATAGCACCGACAC,0.417 ± 0.32,0.774 ± 0.22
ACATTTGTTGATACAACCATATATTGATATCTCCAACCATAAGTTGATATTTTTCAGTGGGTATTTAACTATAACGCTCTGATCATAGTCAGACCAACATTGCTACGACCCGTATTCGCACCGACAC,-0.859 ± 0.26,2.468 ± 0.015
ACATTTGTTGATACAACCATAAAATGATCATTACACCCATAAATTGATAATTATCCCACCCAATTTAACTATAACGCTCTGATCATAGTCAGACCAACATTGCTACGACCCGTATTCGCACCGACAC,-1.52 ± 0.18,2.27 ± 0.065
ACATTTGTTGATACAACCATATATTGATATCTCCACCCATAAATTGATAATTATCACAACCATATATTGATATCTCCTCTGATCATAGTCAGACCAACATTGCTACGACCCGTATTCGCACCGACAC,-0.13 ± 0.1,-0.00761 ± 0.26
ACATTTGTTGATACAACCATAAAAGGATAATTACACCCATAAATTGATAATTATCCCACCCCATTTAACTATAACGCTCTGATCATAGTCAGACCAACATTGCTACGACCCGTATTCGCACCGACAC,-0.775 ± 0.14,2.28 ± 0.097
ACATTTGTTGATCCAACCATAAAATGATAATTACACCCATAAATTGATCATTATCACACCCAATTTAACTATAACGCTCTGATCATAGTCAGACCAACATTGCTACGACCCGTATTCGCACCGACAC,-1.7 ± 0.3,1.98 ± 0.02
ACATTTGTTGATACAACCATAAAATGATAATTACACCCATAAATTGATAATTTCACACCCATAAATTGATATTGCCTCTGATCATAGTCAGACCAACATTGCTACGACCCGTATTCGCACCGACACT,-0.767 ± 0.17,0.745 ± 0.092
ACATTTGTTGATACAACCATAAAATCATCATTACACCCATCAATTGATAATTATCACACCCCATTTAACTATAACGCTCTGATCATAGTCAGACCAACATTGCTACGACCCGTATTCGCACCGACAC,-4.88 ± 0.26,-1.24 ± 0.14
ACATTTGTTGATACAACCATAAAAGGATAATTACCCCCATAAATTGATAATTATCACACCCAATTTAACTATAACGCTCTGATCATAGTCAGACCAACATTGCTACGACCCGTATTCGCACCGACAC,-1.55 ± 0.26,1.37 ± 0.093
ACATTTGTTGATACAACCATAAAATGATAATTACACCCATAAATTGATAATTATCACAGGGTTAAATTGATATTGCCTCTGATCATAGTCAGACCAACATTGCTACGACCCGTATTCGCACCGACAC,-0.425 ± 0.14,2.33 ± 0.045
ACATTTGTTGATACAACCATAAGTTGATATTTTCAACCATAAAGTGATATTTATCACAACCATATATTGATATCTCCTCTGATCATAGTCAGACCAACATTGCTACGACCCGTATTCGCACCGACAC,-0.136 ± 0.014,-0.347 ± 0.053
ACATTTGTTGATACAACCATAAAAGGATAATTACACCCATCAATTGATAATTATCCCACCCAATTTAACTATAACGCTCTGATCATAGTCAGACCAACATTGCTACGACCCGTATTCGCACCGACAC,-1.89 ± 0.25,0.901 ± 0.1
ACATTTGTTGATACAACCATAAAATGATAATTACACCCATAAATTGATAATTGTGACACCGAATTTAACTATAACGCTCTGATCATAGTCAGACCAACATTGCTACGACCCGTATTCGCACCGACAC,-0.766 ± 0.25,2.87 ± 0.14
ACATTTGTTGATACAACCATAAAAGGATCATTACACCCATAAATTGATAATTATCACACCCAATTTAACTATAACGCTCTGATCATAGTCAGACCAACATTGCTACGACCCGTATTCGCACCGACAC,-2.03 ± 0.18,1.34 ± 0.27
ACATTTGTTGATATGTTGATCAACCATAAAATGATAATTACACCCATAAATTGATAATTATCACACCCATAAATTGATATTGCCTCTGATCATAGTCAGACCAACATTGCTACGACCCGTATTCGCA,-7.04 ± 0.42,-3.71 ± 0.28
ACATTTGTTGATACAACCATAAAATGATAATTACCACCCATAAATTGATAATTATCACACCCATTTAACTATAACGCTCTGATCATAGTCAGACCAACATTGCTACGACCCGTATTCGCACCGACAC,-0.999 ± 0.21,1.69 ± 0.051
ACATTTGTTGATACCACCATAAAATGGTAATTCCACCCCTAAATTGATAATTATCACACCCAATTTAACTATAACGCTCTGATCATAGTCAGACCAACATTGCTACGACCCGTATTCGCACCGACAC,-3.4 ± 0.27,-0.252 ± 0.21
ACATTTGTTGATACAACCATAAAATGATAATTACACCGTATAATTGATAATTATCACACCCATAAATTGATATTGCCTCTGATCATAGTCAGACCAACATTGCTACGACCCGTATTCGCACCGACAC,-1.74 ± 0.11,-1.63 ± 0.12
ACATTTGTCGATACAACCATAAAATGATAATTACACCCATAAATGGATCATTATCACCCCCAATTTAACTATAACGCTCTGATCATAGTCAGACCAACATTGCTACGACCCGTATTCGCACCGACAC,-1.61 ± 0.32,1.19 ± 0.086
ACATTTGTTCATACAACCCTAAAATGATAATTACACCCATAAATGGATCATTATCACACCCAATTTAACTATAACGCTCTGATCATAGTCAGACCAACATTGCTACGACCCGTATTCGCACCGACAC,-5 ± 0.2,-3.19 ± 0.38
ACATTTGTTGATACAACCATAAAATGATAAGGCACAAACGCCCGGTCGCCGGCGACACAAACGCCCGGTCGCGGTAAGAGGATCATAGTCAGACCAACATTGCTACGACCCGTATTCGCACCGACAC,-2.28 ± 0.27,1.225 ± 0.01
ACATTTGTTGATACAACCATAAAATGATCATTACCCCCATAAATTGATAATTATCCCACCCAATTTAACTATAACGCTCTGATCATAGTCAGACCAACATTGCTACGACCCGTATTCGCACCGACAC,-2.11 ± 0.51,1.58 ± 0.2
ACATTTGTTGATACACCCATAAATTGATAATTACACCCATAAATTGATATTGCTCACACCCATAAATTGATAATTACTCTGATCATAGTCAGACCAACATTGCTACGACCCGTATTCGCACCGACAC,-0.735 ± 0.34,0.319 ± 0.23
ACATTTGTTGATACACCCATAAATTGATATTGCCAACCATAAAGTGATATTTATCACAACCATAAGTTGATATTTTCTCTGATCATAGTCAGACCAACATTGCTACGACCCGTATTCGCACCGACAC,-0.617 ± 0.14,-0.0145 ± 0.0084
ACATTTGTCGATACAACCCTAAAATGATAATTACACCCATAAATTCATCATTATCACCCCCAATTTAACTATAACGCTCTGATCATAGTCAGACCAACATTGCTACGACCCGTATTCGCACCGACAC,-4.56 ± 0.18,-1.16 ± 0.18
